The results in this text go back to patent US5874209.

The test system of series [1] is LAP(Asp105)/GAL4 chimera S105D (/ Saccharomyces cerevisiae). The experiment in a line: cell_activity. As to conditions: luciferase relative to LAP(Ser105)/GAL4.
Series [2] has as its system T1, NF-IL6/LAP (wild type, C/EBP beta), P21272-2.
T1 sequence: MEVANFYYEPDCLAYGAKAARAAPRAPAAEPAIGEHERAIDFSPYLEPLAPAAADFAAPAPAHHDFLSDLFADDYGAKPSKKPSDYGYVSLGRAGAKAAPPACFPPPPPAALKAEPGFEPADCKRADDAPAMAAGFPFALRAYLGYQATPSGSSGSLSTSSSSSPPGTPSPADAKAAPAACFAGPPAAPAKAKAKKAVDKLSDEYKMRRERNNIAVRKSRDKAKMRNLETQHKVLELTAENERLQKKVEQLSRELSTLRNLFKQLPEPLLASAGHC
The series can be described thus: cell_activity. To be noted: increase in CAT transactivation with PKC alpha plus TPA, HepG2.

In turn, 5xGAL4-LUC reporter GAL4 sites came in with an activity in series [1] of 3 fold.
Take D-CAT reporter (albumin D-site): the activity in series [2] turned out to be 5 fold.
